Measured values reported in publication PMC5607582.

Molecular target: trimeric H5-S·Tag (ectodomain of H5 hemagglutinin of A/duck/Viet Nam/TG24-01/2005 (H5N1) fused to GCN4-pII and S·Tag) (influenza A virus A/duck/Viet Nam/TG24-01/2005 (H5N1) | not stated | bovine)

Compared with “S·Protein-GCN4 (S·Protein fused to the dimerization domain GCN4 wild-type) (from UniProt P61823 47-150)”, “S·Protein-TP (S·Protein of bovine ribonuclease A fused to the tailpiece of mouse IgM) (from UniProt P61823 47-150)” is higher in hemagglutination titer (HAU) of plant extract after co-expression in plants: 2 HAU for the first, 256 HAU for the second.

Compared with “S·Protein-pII (S·Protein fused to the trimerization domain GCN4-pII) (from UniProt P61823 47-150)”, “wild-type S·Protein (bovine pancreatic ribonuclease A residues 21-124) (from UniProt P61823 47-150) (domain or fragment)” is higher in hemagglutination titer (HAU) of plant extract after co-expression in plants: 0 HAU for the first, 4 HAU for the second.
